In PMC6948969, “Regulation of gene expression by the action of a fungal lncRNA on a transactivator”:

T1: Xyr1 (Xylanase regulator 1) (Trichoderma reesei, UniProt G0RLE8 1-920)
T1 sequence: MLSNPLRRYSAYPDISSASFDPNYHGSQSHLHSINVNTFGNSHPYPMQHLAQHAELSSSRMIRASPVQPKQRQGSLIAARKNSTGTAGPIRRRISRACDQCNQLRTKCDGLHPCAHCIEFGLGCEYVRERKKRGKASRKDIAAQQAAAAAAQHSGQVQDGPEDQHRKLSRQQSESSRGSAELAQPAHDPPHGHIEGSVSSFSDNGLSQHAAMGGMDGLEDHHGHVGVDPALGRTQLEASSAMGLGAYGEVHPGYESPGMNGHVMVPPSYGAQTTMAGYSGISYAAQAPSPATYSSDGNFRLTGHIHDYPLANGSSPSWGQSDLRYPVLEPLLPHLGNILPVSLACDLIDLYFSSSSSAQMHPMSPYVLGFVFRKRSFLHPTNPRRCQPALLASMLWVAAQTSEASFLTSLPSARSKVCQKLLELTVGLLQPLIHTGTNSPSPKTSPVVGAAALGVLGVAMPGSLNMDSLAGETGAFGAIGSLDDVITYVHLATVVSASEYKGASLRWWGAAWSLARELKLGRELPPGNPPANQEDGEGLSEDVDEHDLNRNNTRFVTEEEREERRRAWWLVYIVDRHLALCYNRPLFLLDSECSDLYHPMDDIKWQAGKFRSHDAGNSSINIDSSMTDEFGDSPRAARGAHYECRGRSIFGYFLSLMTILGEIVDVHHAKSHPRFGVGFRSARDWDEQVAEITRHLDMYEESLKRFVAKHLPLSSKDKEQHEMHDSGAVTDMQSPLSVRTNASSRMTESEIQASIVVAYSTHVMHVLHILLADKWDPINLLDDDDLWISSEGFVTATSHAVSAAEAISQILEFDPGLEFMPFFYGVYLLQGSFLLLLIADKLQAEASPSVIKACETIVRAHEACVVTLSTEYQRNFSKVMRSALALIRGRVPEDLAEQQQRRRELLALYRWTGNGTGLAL


Key:
[1] = target: T1, Xyr1 (Xylanase regulator 1); assay: circular dichroism; 1.8 or 3.6 uM DNA, 0.5 uM Xyr1; larger loss of ellipticity at 222 nm than XBS; EMSA/RNA-EMSA: 10 mM Tricine, 50 mM NaCl, pH 7.4, 22 C, 10 min; gel 0.5x TBE, 4 C. CD: 50 mM Tris, 200 mM NaCl, 50 mM NaH2PO4, 10% glycerol, pH 7.5, 22 C; conditions: protein: recombinant; chain copies: 2; blunt
[2] = target: T1, Xyr1 (Xylanase regulator 1); assay: circular dichroism; 1.8 or 3.6 uM DNA, 0.5 uM Xyr1; EMSA/RNA-EMSA: 10 mM Tricine, 50 mM NaCl, pH 7.4, 22 C, 10 min; gel 0.5x TBE, 4 C. CD: 50 mM Tris, 200 mM NaCl, 50 mM NaH2PO4, 10% glycerol, pH 7.5, 22 C; conditions: protein: recombinant; chain copies: 2; blunt

Binder	binding result [1]	binding result [2]
XRE probe (xyr1 promoter) (dsDNA) DNA 1: CACTGGATACCTACCTAGGTAGTCTGCAGCAGAAG DNA 2: CTTCTGCTGCAGACTACCTAGGTAGGTATCCAGTG	binds	
XBS probe (xyn1 promoter) (dsDNA) DNA 1: TTGGCAGGCTAAATGCGACATCTTAGCCGGATGCA DNA 2: TGCATCCGGCTAAGATGTCGCATTTAGCCTGCCAA		binds
